Substrate in this data set: CC(=O)Oc1ccc([N+](=O)[O-])cc1
The data set can be described thus: colorimetric esterase assay, Lineweaver-Burk plot. In kind it is biochemical, Sycon raphanus. The following applies: 15 mM Tris/SO4 pH 7.4, 22 °C, 0.25-3 mM substrate, apparent Km.

B1: recombinant carbonic anhydrase (CA) from S. raphanus (Sycon raphanus) (protein)
chain: ASWSYNYGAANGPNNWGMLPGFSTCGNGTKQTPIDIVRASATRQTYPTLSFSGATNETDWTIQNNGHSVAALPTADIWLSGGPLGSKVYKVYNIHIHFGNSSFRASEHSFDGGQRTTGEFHVVTYDRTFSNIGEAVASNRGDALSVFGVLFQAQTGQTYDAGITSLINMAANLTYAGDDYVDGLDFSTMVSALDLQQYYSYMGSLTTPGCAEVVSWIVANRLHYVSPAAIDQLMSLKAGMSATPGIDLQGNTRPLQALNGRTVSRSFDLSGS
notes: carbonic anhydrase domain, lacking signal peptide and transmembrane region; expressed in E. coli, Ni-NTA purified
As to B1, the Michaelis constant (Km) amounted to 6.2 ± 1.0 mM.

For the origin of these results see article PMC3821024, “The enzyme carbonic anhydrase as an integral component of biogenic Ca-carbonate formation in sponge spicules^” (FEBS Open Bio, 2013).
